Results from publication PMC3415985.

Key:
Test in all cases: AUC
[1] = biological target: BirA D176A (Escherichia coli) (UniProt P06709)
[2] = biological target: BirA G142A (Escherichia coli) (UniProt P06709)
[3] = biological target: BirA I280A (Escherichia coli) (UniProt P06709)
[4] = biological target: BirA K172A (Escherichia coli) (UniProt P06709)

Q: For “BirA D176A (from UniProt P06709 1-321) (enzyme)”, which Kd [1] is on record?
A: > 6 mM

Q: “BirA G142A (from UniProt P06709 1-321) (enzyme)” was tested. Which Kd [2] did it give?
A: > 17 mM

Q: “BirA I280A (from UniProt P06709 1-321) (enzyme)” was tested. Which Kd [3] did it give?
A: > 4 mM

Q: For “BirA K172A (from UniProt P06709 1-321) (enzyme)”, which Kd [4] is on record?
A: > 0.7 mM
